# Source: the NTF2 design screens of Basanta et al. (2020)
# Assay: protease stability score; higher = more stable; yeast display proteolysis, trypsin and chymotrypsin;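 note: log10 excess protease needed over predicted unfolded state with 0 meaning unfolded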
row,Sequence,protease stability score
1,DEEDERTVKERMKKNNFDELAKNADENARATYGDKTYHGREQVRKAAKDFKDAVDRVKIDSISVHNGTVRMEFTVVINGRHFEMVLYVHVHNGKVQHMEFQATDDKIRKDLKRLQE,-0.275
2,DEEDMKRVQDLIKAFQEGDPDKVVEQIDPNARIEVGDQHVSGRQHIRETIHNRVEEAEIHYESITLRVRGNTVEVRMVFVENKNGRPKRVHVKIEVQMHNGKVKEIREQEVS,0.969
3,DERNERVFHHFVEAISFNDPQQARRNADKDVKFDVGEKVLHGREEWDKQMEHNKKHMRQDMRVKEVSTSGDKVTARVEQEHNHNGKPSTRDVKMSVEINNGKIKSFRLTTVS,-0.129
4,DEDADRKFQDMVENEHRGDNDKLKKMADKNVKFTVGDKSIHGMEDYATEVRKRKERSRVRYKDVRSNDHNGRVVVKFDAQRNHNGQPKDFHVTVHFRMENGKLKEMEVRTDQ,0.052
5,DSEVLDVLTSIVKNIHNGNPDEVMKQMDPNARVQVGDDRFHGDRKQQEDVQTLLDTMEVNIHITSVDFDGDKVTVRFKVEYNVNGRPFRIEAEMQAVAKNGRIQDLKVRIDKQFLSELKS,0.858
6,EEEKLQKVMEKMFRAVQNGNVEQLKKLGKEDVQFQFVDKRVQGAETYAQEMEKTHRQGNQFEIKEAQVKDDKVTMRTVVDYGDQRITVKAEAQYDGGRLDNARVELTEEYREVLKKG,-0.214
7,DEELQDTAHKLLKLRQRGNWKHVQEMFDENARRIVGDKTLTGMTEIAEEVKREHEQWHLKITDLKASVEGDKVDIKFHAVFDVNGHPVTVNAMVVIVNQGDKAKRIQIRIPESVLNRINQ,0.292
8,DETELRKMQEVQEHNDPDEWKKQADKDVRLKVGNKRLHGREDVHRYLKTHRDQADHIRYKSFDFDGDKADITFHAVVNGRTFEANQEIRIHNGRIQEVNIHYTDDQVQRELEELFG,-0.195
9,DEQVQKQFKEAMRNREKGDKDKVVENFDKHVKVSVGDRTYHGMDDIARRQNEHMKEIRVEYRDVKMSVDNGKIVIHVRQQLEDNGEPREFSYTAEANATNGRIKSYRVDMDPEQVREVDR,-0.215
10,DDKKVRLARSWMQNVRENNEERLQKLIDPNAKVRIGNKVVNGDEEFRRQVKHRKEHMRLDVEIESMTFQGDHVSATYVFRQNVNGTPYSDRVEVHIKMENGRIKHIDARVPEEKLRELSS,-0.106
11,DEEEQMHQANQNLRDAFRTNDPDTWRTLVDENARVRIGDKHVSGREEVKELMEDIAREADHLELRVQSMTVRNGELHVHFTLRADVNGQKREIQVVVVLVVRNGRARISRVEQT,1.15
12,EEEKYQKLAKKVFEAVDKGNYEEVVKLGDENGKFQFGDNRVEGLEQYKRLMEKFEKKGVQVRVRKAQNKDDTATMVTTVKYGDVENTVTAELKYEGGKLKEARVENDEEVKEAVKKG,0.031
13,DTRKVQEMAKQFVQAMKDNDRTTLEKLADEDARIRVGEKELHGRDQVATMVAHMAKNIDHIRVKKLSVDENHVNLVFEVEHNGRRVRIILRITARNGRIKHIQVDPDRVRELEG,1.01
14,DREEQSEFAKKFLEVVMHGDPKKIRKLADPNAKADVGDKKYHGRESMAKWAHDFRKEVDHIEFKDLKVDGETARLDVVYDVNGHKERQVVVVTAHNGRVKHMQVEEG,-0.18
15,DEKRLKELLEHVFKQVMNGNEEEVLKHGKPDVQYEYLTKRYEGEDAMRVVIKKIKRIGAEVQVKRREVHGNTMRADFDYHKGDQTVRTTAEAKYEGDQVKEFRVKVTEEHKQVIHQG,0.104
16,DEEKEKEAADRASTNDPDEFRKMVDEDARVVVGEKQWHGREKVQKFYEDQKKRIDHLRVEHVDKDGNRVVITQFYQVNGVRVHAIFIITVHNGRLKMRSVQFTDEHAERRMKKAVS,0.528
17,DETATEAAQRMMDNWRTNSPEDYAKLADKNVEVRVGDKTYTGRDELRSRLQRKREEQHIDLRTYHFRVNGDEVTVRARYIENHNGRPQHKVVRFVFRLHNGRVKEIERHDDS,0.22
18,DEEQHSVADQFNRDLRQGDPDTIRKLLDKDADLRVGDKDLHGRENLIDHMRKMHKKMQVNVDVDSVEDHNGKVIIQATVVEHHNGKPKTYQVDARLHADNGKIKNADFQETS,-0.115

row,Sequence,protease stability score
1,DETEDKKAQQLAKAINDGDEHDVRKMMDKDVKVDVGDKQLHGREQAAKWMSRHRREQRRTIEVTDVKMHGEKAELDANLRVDVNGQPRTHRVRIIVSITNGRLQHLEIHMDPRFEQSVQS,-0.25
2,DEDAKRSLNELWKAIQQGDPDRIRELIDKNVRLRYGEKRIHGRDQAAKFWHDLHDHARFKVRDVSIKIHNGRADVRMRMTIHINGEPLDVTVIYKIEFHNGQAVRIELEVDEDQLRKQRK,0.845
3,DEDLKQQFDELVEIKKNGDEDRLVEQADENVKAQVGDKDVHGMKEIAHNIRHTVERIRVEIKSMEVDAQGNRVHVENDFVENNNGKPHRKVVDMKFIFHNGTLKSYTERDDK,-0.608
4,DEEDLQKLARSFQENLKTGNPDELMKLFDEDANLHYGDKKVHGREDIRRWADEMRRRVDKVTVLQVDAHGDKMDAVIVQRFDGRDVMISVDAKFHNGRFKEVVYRVRDEEHEKRLHT,1.38
5,DEHHEARKMIKHYFELLNQGNFEEAAKLFDEDAKVHVGDRTVNGREQIHDWFTRMRKQIDEFTVRLTKVEVSNGHVRVDFYYTKNHNGKSKSNSVDMIFQNNNGRIRAKSMQEK,-0.085
6,DTEARKLIEELLRAVRDGDPDQVKQNADPNARVQYGDQTFHGMDRYAEWVEEMHKQARVSIEFDSFSFTGDKVQMHAKHVVEVNGKPQRDTVVIRAVVRGDKIRNIHFRMDEQRVRDQQS,0.783
7,DRRQEARDIQHDQNRALKHGDQESAQRLFDENARIKIGDRQWHGSDDVMTEVREQHKKVDSIRIHVVSIDVRGDQYDINVQYNLHYDGDNDTFRATQRLKKHNGSVRVVDQHEQ,-0.276
8,DEERQDQAEEFWKILQTGDPDKAREELRDDVHVHVGDKVIHGMEDVDRDIERVRKQIRVEFDVRHIDSQGERISVEANIMENENGKPETAQLTVIIDMHNGRVVRIVFEKRK,1.96
9,DETEKADQMVHDLEEAIKTGDPDEISNQADPNVSFHYGDKTFHGREKLAEWFLELQKRVDHMHLDIKDIEVQGDKATITMQMVLDKNGDDERKDIRVEAQYHNGRLTISFAEAR,2.15
10,DEELAHKIAKLMETNNFQDMAKQADENATAVVGDFKVRGRSQLETLMQRFLDQIDHFEVKSWHIDNGNVHVNFVASVNGRTIEAQVIIHVSNGRIKSIELRVRNQDVQKHLRNMLS,1.05
11,DEELHEWVKEYLKALQHNDPNQFKRLADPNVRYHVGDKEVHGREEWAKLVEKRRDSMRLEMKSVSIDAQGNKARVRLRFVEEHDGRPKEFEADFDFHVSNGKLVTVKVDEDQ,0.123
12,DEENLHRRAEQFVKALEHGDQHQFRRMFDENARVEVGDKFFHGREEVARFMRDLTRRIDHVQFRRMEVRGEKIIVKAEAHVNGKRVTIIFDLTVKNGRIKHVRITFTDEKDRREFER,1.12
13,DEDAVRRVKDMIRNLKSGNPDDAARYADPNARFDIGDWHIDGRKQLVKKLRDITRHMRYKFEMRSVDVTGNKLKFKATAHVSVNGRPITYHMTASIIVHNGHVTHVDQQLPEELLKRIEQ,0.785
14,DNEEHKVLEELIRAIQEGNEKDIKRLIDPNARVNVGDKTYHGREQIVKWWFDLQQELEFEIDIKRWHVNNGQIRADIKYVRNNNGKPESFRADMQVTASNGKFKSVSVHETK,1.43
15,DERAVKRMEKFIKVLINGNPDDLKEYLDENVKVDVGDKRIHGRETFMNEAEKDKRQMSVSLKEVRVDAHNGRLQVNARVHINHNGTPRDKEYVMQAILHNGRIKSMRVQSTG,0.835
16,DKKQVHDVARTLVQYYVSGNSERVKQLGKEDVELHAGDRTYHGVDQMAKVVEQFKKYGVELEVKDVKVDGNRVTARVQFHKAGTTWEFKVDVQADGGKVDQVRVNVTEEAIKHIQHG,0.797
17,DQNDRAEEFFKHWQRILTKNDPDEARKQMDKDVNVVYGDKRYHGREEVVKYLRDNMDRVDSIRVKLDDFKVDNGKATFHARFRQTHNGKDEQHNVVIVAQFKNGKLRAQSYHES,1.01
18,DEKKQAKRLHETMDRILTQGNPHEAKHLFDKDARIDVGDKKVHGREQIAKSLAERVRQVDHIHNQVDHVEVDNGQLNMTVRFQQETNGKTHDYSAQHRVDIDGDKVKVVKVTHQ,-0.336
